Experimental data published in publication PMC3853347.

Columns and labels:
[1] = molecular target: Flag-TDRD3 CTD-deletion mutant; experiment: co-IP
[2] = molecular target: Flag-TDRD3 Tudor-deletion mutant (UniProt Q9H7E2); experiment: co-IP
Sequence of Flag-TDRD3 Tudor-deletion mutant (Q9H7E2 whole entry, stated change not applied): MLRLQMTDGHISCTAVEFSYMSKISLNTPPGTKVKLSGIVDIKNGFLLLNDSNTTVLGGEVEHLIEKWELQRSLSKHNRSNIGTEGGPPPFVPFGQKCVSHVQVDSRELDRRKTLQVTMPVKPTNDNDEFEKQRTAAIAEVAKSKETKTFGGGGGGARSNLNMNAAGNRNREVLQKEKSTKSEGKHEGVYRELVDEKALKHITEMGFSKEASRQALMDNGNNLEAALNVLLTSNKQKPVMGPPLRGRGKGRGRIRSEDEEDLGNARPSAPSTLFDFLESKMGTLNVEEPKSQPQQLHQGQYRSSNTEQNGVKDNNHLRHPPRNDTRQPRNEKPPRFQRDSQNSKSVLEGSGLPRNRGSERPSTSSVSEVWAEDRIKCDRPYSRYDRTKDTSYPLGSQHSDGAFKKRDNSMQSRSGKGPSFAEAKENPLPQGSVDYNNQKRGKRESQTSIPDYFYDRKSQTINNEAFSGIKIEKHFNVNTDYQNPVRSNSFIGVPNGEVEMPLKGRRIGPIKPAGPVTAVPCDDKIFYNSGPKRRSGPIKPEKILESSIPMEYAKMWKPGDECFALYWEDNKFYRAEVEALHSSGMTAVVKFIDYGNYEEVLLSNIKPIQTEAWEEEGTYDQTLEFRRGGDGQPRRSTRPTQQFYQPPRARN

Sequence of Flag-TDRD3 CTD-deletion mutant (Q9H7E2 whole entry, stated change not applied): as above
Sequence of FXR2, endogenous human (P51116 whole entry): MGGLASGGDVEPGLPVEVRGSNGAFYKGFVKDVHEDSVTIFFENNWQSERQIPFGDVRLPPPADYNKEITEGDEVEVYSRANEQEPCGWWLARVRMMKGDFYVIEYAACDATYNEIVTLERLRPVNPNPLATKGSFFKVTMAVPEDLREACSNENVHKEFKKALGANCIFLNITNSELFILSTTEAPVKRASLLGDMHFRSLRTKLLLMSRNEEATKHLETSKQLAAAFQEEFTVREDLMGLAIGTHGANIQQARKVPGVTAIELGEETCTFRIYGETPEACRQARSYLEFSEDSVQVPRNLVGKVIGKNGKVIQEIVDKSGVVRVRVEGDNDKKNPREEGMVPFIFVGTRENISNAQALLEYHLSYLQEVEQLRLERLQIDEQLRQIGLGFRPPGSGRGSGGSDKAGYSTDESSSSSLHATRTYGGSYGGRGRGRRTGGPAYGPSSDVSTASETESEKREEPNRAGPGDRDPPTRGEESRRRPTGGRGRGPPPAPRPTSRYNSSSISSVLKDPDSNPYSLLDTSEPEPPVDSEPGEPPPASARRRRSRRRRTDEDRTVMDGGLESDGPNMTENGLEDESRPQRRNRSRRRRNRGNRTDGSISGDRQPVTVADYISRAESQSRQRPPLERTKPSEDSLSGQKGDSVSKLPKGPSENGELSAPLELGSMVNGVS
Sequence of FXR1, endogenous human (P51114 whole entry): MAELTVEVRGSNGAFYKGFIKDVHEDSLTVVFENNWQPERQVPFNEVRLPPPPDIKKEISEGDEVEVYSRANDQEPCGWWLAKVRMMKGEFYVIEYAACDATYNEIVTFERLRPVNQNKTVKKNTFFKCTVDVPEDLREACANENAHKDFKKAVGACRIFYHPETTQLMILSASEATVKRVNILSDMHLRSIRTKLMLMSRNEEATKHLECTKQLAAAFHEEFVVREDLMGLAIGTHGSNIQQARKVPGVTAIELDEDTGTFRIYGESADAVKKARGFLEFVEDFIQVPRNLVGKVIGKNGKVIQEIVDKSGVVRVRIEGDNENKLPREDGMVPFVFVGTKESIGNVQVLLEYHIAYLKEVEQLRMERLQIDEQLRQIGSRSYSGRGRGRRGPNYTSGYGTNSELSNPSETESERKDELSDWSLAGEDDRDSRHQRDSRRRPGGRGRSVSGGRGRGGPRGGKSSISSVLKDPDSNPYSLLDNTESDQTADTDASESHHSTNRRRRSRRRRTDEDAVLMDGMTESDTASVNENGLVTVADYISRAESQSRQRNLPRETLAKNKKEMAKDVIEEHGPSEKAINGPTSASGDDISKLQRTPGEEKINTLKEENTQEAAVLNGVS

Q: Which results are given for “FMRP, endogenous human (from UniProt Q06787 1-632) (natural protein)”?
A: reduction of the co-immunoprecipitated amount against wild-type TDRD3 [1]: 80%; reduction of the co-immunoprecipitated amount against wild-type TDRD3 [2]: 30%

Q: “FXR1, endogenous human (from UniProt P51114 1-621) (natural protein)” was tested. Which reduction of the co-immunoprecipitated amount against wild-type TDRD3 [1] did it give?
A: 80%

Q: And the reduction of the co-immunoprecipitated amount against wild-type TDRD3 [2]?
A: 30%

Q: “FXR2, endogenous human (from UniProt P51116 1-673) (natural protein)” was tested. Which reduction of the co-immunoprecipitated amount against wild-type TDRD3 [1] did it give?
A: 80%

Q: What about the reduction of the co-immunoprecipitated amount against wild-type TDRD3 [2] of the same substance?
A: 30%
